Reference: patent US20260167720A1 (Amgen, published 2026)

B1: MSLN-CDH3 T-cell engager molecule 5 (example to FIG. 2D) (bispecific antibody, human IgG1, kappa, N297G)
chain 1: not shown
chain 2: EVQLVESGGGLVQPGGSLKLSCAASGFTFNKYAMNWVRQAPGKGMEWVARIRSKYNNYATYYADAVKDRFTISRDDSKNTLYLQMNNLKTEDTAVYYCVRAGNFGSSYISYFAYWGQGTLVTVSSGGGGQGGGGQGGGGQQTVVTQEPSLTVSPGGTVTITCGSSTGAVTSGNYPNWIQKKPGQAPRGLIGGTKFLAPGTPARFSGSLEGGKAALTLSGVQPEDEAEYYCVLYYSNRWVFGSGTKLTVLGGGGGDKTHTCPPCPAPELLGGPSVFLFPPKPKDTLMISRTPEVTCVVVDVSHEDPEVKFNWYVDGVEVHNAKTKPCEEQYGSTYRCVSVLTVLHQDWLNGKEYKCKVSNKALPAPIEKTISKAKGQPREPQVYTLPPSRKEMTKNQVSLTCLVKGFYPSDIAVEWESNGQPENNYKTTPPVLKSDGSFFLYSKLTVDKSRWQQGNVFSCSVMHEALHNHYTQKSLSLSPGKGGGGQGGGGQGGGGQQVQLQESGPGLVKPSETLSLTCTVSGGSISSSSYFWGWIRQPPGKCLEWIGNIYYSGSSNYNPSLKSRVTISVDTSKNQFSLKLSSVTAADTAVYYCARLPRGDRDAFDIWGQGTMVTVSSGGGGQGGGGQGGGGQEIVMTQSPSSLSASVGDRVTITCRASQGISNYLAWYQQKPGKVPKLLIYAASTLQSGVPSRFSGSGSGTDFTLTISSLQPEDFATYYCQQSYSTPFTFGCGTKVEIK
chain 3: EIQMTQSPSSLSASVGDRVTITCRASQDISNYLNWYQQKPGKVPKLLIYYTSRLHSGVPSRFSGSGSGTDFTLTISSLQPEDVATYYCVQYAQFPLTFGCGTKVEIKRTVAAPSVFIFPPSDEQLKSGTASVVCLLNNFYPREAKVQWKVDNALQSGNSQESVTEQDSKDSTYSLESTLTLSKADYEKHKVYACEVTHQGLSSPVTKSFNRGEC
B2: MSLN-CDH3 T-cell engager molecule 7 (example to FIG. 2K) (bispecific antibody, human IgG1, kappa, lambda, N297G)
chain 1: not shown
chain 2: EVQLVESGGGLVQPGGSLKLSCAASGFTFNKYAMNWVRQAPGKGMEWVARIRSKYNNYATYYADAVKDRFTISRDDSKNTLYLQMNNLKTEDTAVYYCVRAGNFGSSYISYFAYWGQGTLVTVSSASTKGPSVFPLAPSSKSTSGGTAALGCLVKDYFPEPVTVSWNSGALTSGVHTFPAVLQSSGLYSLESVVTVPSSSLGTQTYICNVNHKPSNTKVDKKVEPKSCDKTHTCPPCPAPELLGGPSVFLFPPKPKDTLMISRTPEVTCVVVDVSHEDPEVKFNWYVDGVEVHNAKTKPCEEQYGSTYRCVSVLTVLHQDWLNGKEYKCKVSNKALPAPIEKTISKAKGQPREPQVYTLPPSRKEMTKNQVSLTCLVKGFYPSDIAVEWESNGQPENNYKTTPPVLKSDGSFFLYSKLTVDKSRWQQGNVFSCSVMHEALHNHYTQKSLSLSPGKGGGGQGGGGQGGGGQQVQLQESGPGLVKPSETLSLTCTVSGGSISSSSYFWGWIRQPPGKCLEWIGNIYYSGSSNYNPSLKSRVTISVDTSKNQFSLKLSSVTAADTAVYYCARLPRGDRDAFDIWGQGTMVTVSSGGGGQGGGGQGGGGQEIVMTQSPSSLSASVGDRVTITCRASQGISNYLAWYQQKPGKVPKLLIYAASTLQSGVPSRFSGSGSGTDFTLTISSLQPEDFATYYCQQSYSTPFTFGCGTKVEIK
chain 3: EIQMTQSPSSLSASVGDRVTITCRASQDISNYLNWYQQKPGKVPKLLIYYTSRLHSGVPSRFSGSGSGTDFTLTISSLQPEDVATYYCVQYAQFPLTFGCGTKVEIKRTVAAPSVFIFPPSDEQLKSGTASVVCLLNNFYPREAKVQWKVDNALQSGNSQESVTEQDSKDSTYSLESTLTLSKADYEKHKVYACEVTHQGLSSPVTKSFNRGEC
chain 4: QTVVTQEPSLTVSPGGTVTITCGSSTGAVTSGNYPNWIQKKPGQAPRGLIGGTKFLAPGTPARFSGSLEGGKAALTLSGVQPEDEAEYYCVLYYSNRWVFGSGTKLTVLGQPKAAPSVTLFPPSSEELQANKATLVCLISDFYPGAVTVAWKADSSPVKAGVETTTPSKQSNNKYAAKSYLSLTPEQWKSHRSYSCQVTHEGSTVEKTVAPTECS
B3: MSLN-CDH3 T-cell engager molecule 6 (example to FIG. 2L) (bispecific antibody, human IgG1, kappa, lambda, N297G)
chain 1: not shown
chain 2: EVQLVESGGGLVQPGGSLKLSCAASGFTFNKYAMNWVRQAPGKGMEWVARIRSKYNNYATYYADAVKDRFTISRDDSKNTLYLQMNNLKTEDTAVYYCVRAGNFGSSYISYFAYWGQGTLVTVSSASTKGPSVFPLAPSSKSTSGGTAALGCLVKDYFPEPVTVSWNSGALTSGVHTFPAVLQSSGLYSLESVVTVPSSSLGTQTYICNVNHKPSNTKVDKKVEPKSCDKTHTCPPCPAPELLGGPSVFLFPPKPKDTLMISRTPEVTCVVVDVSHEDPEVKFNWYVDGVEVHNAKTKPCEEQYGSTYRCVSVLTVLHQDWLNGKEYKCKVSNKALPAPIEKTISKAKGQPREPQVYTLPPSRKEMTKNQVSLTCLVKGFYPSDIAVEWESNGQPENNYKTTPPVLKSDGSFFLYSKLTVDKSRWQQGNVFSCSVMHEALHNHYTQKSLSLSPGKGGGGQVQLQESGPGLVKPSETLSLTCTVSGGSISSSSYFWGWIRQPPGKCLEWIGNIYYSGSSNYNPSLKSRVTISVDTSKNQFSLKLSSVTAADTAVYYCARLPRGDRDAFDIWGQGTMVTVSSGGGGQGGGGQGGGGQEIVMTQSPSSLSASVGDRVTITCRASQGISNYLAWYQQKPGKVPKLLIYAASTLQSGVPSRFSGSGSGTDFTLTISSLQPEDFATYYCQQSYSTPFTFGCGTKVEIKSGGGGQEVQLVESGGGLVQPGGSLKLSCAASGFTFNKYAMNWVRQAPGKGMEWVARIRSKYNNYATYYADAVKDRFTISRDDSKNTLYLQMNNLKTEDTAVYYCVRAGNFGSSYISYFAYWGQGTLVTVSSGGGGQGGGGQGGGGQQTVVTQEPSLTVSPGGTVTITCGSSTGAVTSGNYPNWIQKKPGQAPRGLIGGTKFLAPGTPARFSGSLEGGKAALTLSGVQPEDEAEYYCVLYYSNRWVFGSGTKLTVL
chain 3: EIQMTQSPSSLSASVGDRVTITCRASQDISNYLNWYQQKPGKVPKLLIYYTSRLHSGVPSRFSGSGSGTDFTLTISSLQPEDVATYYCVQYAQFPLTFGCGTKVEIKRTVAAPSVFIFPPSDEQLKSGTASVVCLLNNFYPREAKVQWKVDNALQSGNSQESVTEQDSKDSTYSLESTLTLSKADYEKHKVYACEVTHQGLSSPVTKSFNRGEC
chain 4: QTVVTQEPSLTVSPGGTVTITCGSSTGAVTSGNYPNWIQKKPGQAPRGLIGGTKFLAPGTPARFSGSLEGGKAALTLSGVQPEDEAEYYCVLYYSNRWVFGSGTKLTVLGQPKAAPSVTLFPPSSEELQANKATLVCLISDFYPGAVTVAWKADSSPVKAGVETTTPSKQSNNKYAAKSYLSLTPEQWKSHRSYSCQVTHEGSTVEKTVAPTECS

Legend:
Assay in all cases: cell-based or functional assay
[1] = target: T1, CDH3 (Cadherin-3, P-Cadherin) on HCT116 or GSU cells (UniProt P22223 108-829, limits assumed)
[2] = target: T2, MSLN (Mesothelin) on HCT116 or GSU cells (UniProt Q13421 37-598, limits assumed)
[3] = target: T1, CDH3 (Cadherin-3, P-Cadherin) on HCT116 …; remark: listed apart in the source
[4] = target: T2, MSLN (Mesothelin) on HCT116 or GSU cells; remark: listed apart in the source

Row | Binder | EC50 HCT116 KO MSLN [pM]; TDCC, MSLN knocked out, CDH3 left [1] | EC50 HCT116 WT [pM]; TDCC, cells double positive for CDH3 and MSLN [1] | EC50 HCT116 KO CDH3 [pM]; TDCC, CDH3 knocked out, MSLN left [2] | EC50 HCT116 WT [pM]; TDCC, cells double positive for CDH3 and MSLN [2] | EC50 GSU KO MSLN [pM]; TDCC, MSLN knocked out, CDH3 left [3] | EC50 GSU WT [pM]; TDCC, cells double positive for CDH3 and MSLN [3] | EC50 GSU KO CDH3 [pM]; TDCC, CDH3 knocked out, MSLN left [4] | EC50 GSU WT [pM]; TDCC, cells double positive for CDH3 and MSLN [4]
1 | B1 | 2.25 pM | 0.039 pM | 8.07 pM | 0.039 pM | 175 pM | 0.128 pM | 10.5 pM | 0.128 pM
2 | B2 | 1.5 pM | 0.04 pM | 25.5 pM | 0.04 pM | 95 pM | 0.261 pM | 54.6 pM | 0.261 pM
3 | B3 | 0.27 pM | 0.002 pM | 0.58 pM | 0.002 pM | 11.6 pM | 0.024 pM | 0.89 pM | 0.024 pM
